Assay results taken from patent US20240239894A1 (AstraZeneca / MedImmune, published 2024).

T1: huBTNL3 (human, UniProt Q6UXE8 18-237, limits assumed)
T1 construct: Sourced antigen; construct not described; also called Human BTNL3
T1 sequence (looked up): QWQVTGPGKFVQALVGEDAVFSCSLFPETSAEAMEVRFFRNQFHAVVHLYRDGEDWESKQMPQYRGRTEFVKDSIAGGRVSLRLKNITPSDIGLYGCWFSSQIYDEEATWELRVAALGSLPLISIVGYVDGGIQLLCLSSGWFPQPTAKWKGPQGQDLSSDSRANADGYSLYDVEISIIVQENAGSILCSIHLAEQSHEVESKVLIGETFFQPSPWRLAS

T2: human B7-H4 on cells (human, UniProt Q7Z7D3 25-282)
T2 sequence: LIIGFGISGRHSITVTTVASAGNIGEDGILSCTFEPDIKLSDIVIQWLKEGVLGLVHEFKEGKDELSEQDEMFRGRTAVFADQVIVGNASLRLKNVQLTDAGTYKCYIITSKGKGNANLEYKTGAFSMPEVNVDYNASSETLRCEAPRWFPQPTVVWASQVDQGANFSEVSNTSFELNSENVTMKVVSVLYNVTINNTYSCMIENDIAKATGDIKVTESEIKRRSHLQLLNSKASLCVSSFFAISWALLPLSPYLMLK

T3: Human B7-H4-Fc (Human B7H4 ECD, Fc_6His) (human)
T3 construct: also called FcHis6 tagged human B7-H4
T3 sequence (Q7Z7D3 whole entry, looked up): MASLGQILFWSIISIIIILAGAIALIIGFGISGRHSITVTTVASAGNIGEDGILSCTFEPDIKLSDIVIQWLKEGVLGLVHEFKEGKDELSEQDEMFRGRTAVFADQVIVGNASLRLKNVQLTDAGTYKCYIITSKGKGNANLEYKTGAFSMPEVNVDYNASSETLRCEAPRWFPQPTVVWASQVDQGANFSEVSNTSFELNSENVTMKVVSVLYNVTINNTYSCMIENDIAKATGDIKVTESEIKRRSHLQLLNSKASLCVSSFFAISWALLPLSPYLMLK

T4: Murine B7-H4-Fc (Mouse B7H4 ECD, Fc_6His) (mouse, UniProt Q7TSP5 25-257)
T4 construct: extracellular domain; also called mouse B7-H4-Fc; FcHis6 tagged murine B7-H4
T4 sequence (Q7TSP5 whole entry, looked up): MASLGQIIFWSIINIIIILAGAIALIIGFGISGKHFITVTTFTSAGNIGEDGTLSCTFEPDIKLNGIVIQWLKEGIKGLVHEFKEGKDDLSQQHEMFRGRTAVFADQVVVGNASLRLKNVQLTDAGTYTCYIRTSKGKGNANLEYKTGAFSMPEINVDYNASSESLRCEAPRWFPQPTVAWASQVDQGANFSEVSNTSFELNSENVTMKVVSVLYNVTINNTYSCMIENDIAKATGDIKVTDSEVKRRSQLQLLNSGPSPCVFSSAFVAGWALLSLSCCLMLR

T5: Human B7-H4 ECD-Flag-His10 (monomeric) (human, UniProt Q7Z7D3 25-259)
T5 construct: Minimally biotinylated for KinExA; also called hB7H4-ECD-Flag-His10; B7-H4-FLAG
T5 sequence: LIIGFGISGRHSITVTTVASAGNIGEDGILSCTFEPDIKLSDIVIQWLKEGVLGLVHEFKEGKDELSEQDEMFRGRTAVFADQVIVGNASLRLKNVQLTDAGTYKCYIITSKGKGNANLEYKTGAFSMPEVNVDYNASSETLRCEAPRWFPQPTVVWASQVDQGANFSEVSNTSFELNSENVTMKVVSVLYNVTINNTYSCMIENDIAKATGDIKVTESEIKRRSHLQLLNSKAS

T6: Murine B7-H4 ECD-Flag-His10 (monomeric) (mouse, UniProt Q7TSP5 25-257)
T6 construct: extracellular domain; also called FlagHis10 murine B7-H4
T6 sequence (looked up): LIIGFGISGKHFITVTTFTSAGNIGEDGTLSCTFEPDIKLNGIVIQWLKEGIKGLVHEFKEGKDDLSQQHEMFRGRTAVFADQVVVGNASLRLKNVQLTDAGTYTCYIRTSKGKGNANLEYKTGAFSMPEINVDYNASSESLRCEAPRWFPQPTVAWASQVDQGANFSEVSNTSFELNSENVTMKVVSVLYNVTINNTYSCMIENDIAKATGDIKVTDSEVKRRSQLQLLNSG


Assays:
huB7-H1 = biological target: T7, huB7-H1 (human, UniProt Q9NZQ7 19-238); experiment: ELISA
T7 construct: Sourced antigen; construct not described; also called Human B7-H1
T7 sequence (Q9NZQ7 19-238 limits assumed): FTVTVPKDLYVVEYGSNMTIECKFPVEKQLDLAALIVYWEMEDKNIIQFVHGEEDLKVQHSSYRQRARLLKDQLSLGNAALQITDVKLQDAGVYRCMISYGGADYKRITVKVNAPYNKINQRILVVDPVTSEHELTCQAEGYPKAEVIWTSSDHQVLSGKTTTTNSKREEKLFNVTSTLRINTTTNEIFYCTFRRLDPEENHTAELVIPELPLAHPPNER

huBTNL3 = biological target: T1, huBTNL3; experiment: ELISA
human B7-H4 on cells = biological target: T2, human B7-H4 on cells; experiment: cell-based or functional assay
[1] = biological target: T3, Human B7-H4-Fc (Human B7H4 ECD, Fc_6His); experiment: HTRF binding, human IgG1-TM
[2] = biological target: T8, Cyno B7-H4-Fc (Cyno B7H4 ECD, FcTM_6His) (cynomolgus monkey); experiment: HTRF binding, human IgG1-TM
T8 construct: extracellular domain; also called cynomolgus B7-H4-Fc

[3] = biological target: T4, Murine B7-H4-Fc (Mouse B7H4 ECD, …); experiment: HTRF binding, human IgG1-TM
[4] = biological target: T5, Human B7-H4 ECD-Flag-His10 (monomeric); experiment: Octet BLI, hIgG1-TM on Protein G (n = 4-7)
[5] = biological target: T6, Murine B7-H4 ECD-Flag-His10 (monomeric); experiment: Octet BLI, hIgG1-TM on Protein G (n = 4-7)
[6] = biological target: T5, Human B7-H4 ECD-Flag-His10 (monomeric); experiment: Octet; summary table, rounded from Table 9 (hIgG1-TM)
[7] = biological target: T9, Human B7H4 ECD (SV), splice variant, 10His_FLAG (human); experiment: Octet BLI, hIgG1-TM on Protein G (n = 4-7)
T9 construct: also called B7-H4-SV

Row | Binder | binding result (huB7-H1) | binding result (huBTNL3) | ZAP % Viability, OVCAR4 (human B7-H4 on cells) | ZAP % Viability, SKBR3 (human B7-H4 on cells) | ZAP IC50 (M), OVCAR4 (human B7-H4 on cells) | ZAP IC50 (M), SKBR3 (human B7-H4 on cells) | EC50 [1] | Max [1] | EC50 [2] | Max [2] | EC50 [3] | Max [3] | Kd [4] | koff [4] | kon [4] | Kd [5] | koff [5] | kon [5] | Kd [6] | Kd [7] | other results
1 | ZY0EP0-C07 human IgG1-TM (antibody, V domains shown, also called ZY0EPO-C07) VH: QVQLVESGGVLVKPGGSLRLSCAASGFTLSDYYMSWIRQAPGMGLEWVSYISSSGSTIYYTDSVKGRFTISRDSAKNSLYLQMNSLRAEDTAVYYCARDGVGFDYWGQGTLVTVSS VL: EIVLTQSPGTLSLFPGERATLSCRASQSVSSSYLAWYQQKPGQSPRLLIYAASSRATGIPDRFSGSGSGTDFTLTISRLEPEDFAVYYCQQYGSSPLYTFGQGTKLEIK | no binding | no binding | 57% | 72% | 1e-08 M | 4e-09 M | 0.31 nM | 1210 | 0.39 nM | 890 | 0.2 nM | 1250 | 9.4 nM | 0.000397 s⁻¹ | 41600 M⁻¹ s⁻¹ | 11 nM | 0.000524 s⁻¹ | 43000 M⁻¹ s⁻¹ | 9 nM |  | 
2 | ZY0EQD-E02 human IgG1-TM (antibody, V domains shown) VH: QVQLQQWGAGLLKPSETLSLTCAVYGGSFSGYYWNWIRQPPGKGLEWIGEINHSGSTSYNPSLKSRVTISVDTSKNQFSLKLSSVTAADTAVYYCARVLYNWNVDSWGQGTLVTVSS VL: DIQMTQSPSSLSASVGDRVTITCRASQDIRNDVGWYQQKPGKAPKRLIYAASRLQSGVPSRFSGSGSGTEFTLTISSLQPEDFATYYCLQHNSYPRTFGQGTKVEIK | no binding | no binding | 40% | 48% | 2e-08 M | 1e-08 M | 0.33 nM | 1270 | 0.28 nM | 1100 | 1.44 nM | 224 | 14.4 nM | 0.00278 s⁻¹ | 193000 M⁻¹ s⁻¹ | 621 nM | 0.126 s⁻¹ | 203000 M⁻¹ s⁻¹ | 14 nM | 801 nM | koff [7]: 0.00269 s⁻¹; kon [7]: 3360 M⁻¹ s⁻¹
3 | ZY0EPQ-E02 human IgG1-TM (antibody, V domains shown) VH: QVQLQQWGAGLLKPSETLSLTCAVYGGSFSGYYWNWIRQPPGKGLEWIGEINHSGSTNYNPSLKSRVTILVDTSKNQFSLKLSSVTAADTAVYYCARNLYNWNLDSWGQGTLVTVSS VL: DIQMTQSPSSLSASVGDRVTITCRASQGIRNDLGWYQQKPGRAPKRLIYVASSLQSGVPSRFSGSGSGTEFTLTISSLQPEDFATYYCLQHNSYPRTFGQGTKVEIK | no binding | no binding | 46% | 65% | 2e-08 M | 4e-09 M | 0.41 nM | 1090 | 0.35 nM | 934 | 1.76 nM | 256 | 25.7 nM | 0.00182 s⁻¹ | 70900 M⁻¹ s⁻¹ | 396 nM | 0.0304 s⁻¹ | 76700 M⁻¹ s⁻¹ | 26 nM | 1660 nM | koff [7]: 0.00229 s⁻¹; kon [7]: 1380 M⁻¹ s⁻¹
4 | ZY0EOB-F05 human IgG1-TM (antibody, V domains shown) VH: QVQLQESGPGLVKPSQTLSLTCTVSDGSISSGGYYWSWIRQHPGKGLEWIGNIYYSGSTYYNPSLKSRVTISVDTSKNQFSLKLNSVTAADTAVYYCATEKALATVTPSGYENYYTVDVWGQGTTVTVSS VL: DIQLTQSPSFLSASVGDRVTITCWASQGISSYLAWYQQKPGKAPKLLIYAASTLQSGVPSRFSGSGSGTEFTLTISSLQPEDFATYYCQHLNSYPLTFGGGTKVEIK | no binding | no binding | 67% | 84% |  |  | 0.15 nM | 1870 | 0.15 nM | 1480 | 0.19 nM | 1340 | 13.4 nM | 0.000355 s⁻¹ | 26500 M⁻¹ s⁻¹ | 25 nM | 0.000476 s⁻¹ | 18700 M⁻¹ s⁻¹ | 13 nM | 174 nM | koff [7]: 0.000584 s⁻¹; kon [7]: 3350 M⁻¹ s⁻¹
